# What was measured:
# HLA-B*07:02 [1] = assay: IEDB peptide-MHC binding, purified MHC/direct/fluorescence; filed as Kd, often an IC50 or EC50 that approximates it; ≥ and ≤ were set here for values at or beyond the usual limits of such assays
# HLA-A*03:01 = assay: as above
# HLA-B*57:01 = assay: as above
# HLA-A*02:11 = assay: as above
# HLA-B*35:01 [2] = assay: as above
# HLA-A*24:03 = assay: as above
# HLA-A*02:03 = assay: as above
# HLA-B*51:01 = assay: as above; details: source organism: Vibrio vulnificus CMCP6
# HLA-A*02:16 = assay: as above
# HLA-B*39:01 = assay: as above
# HLA-A*02:01 [3] = assay: as above
# HLA-A*02:12 = assay: as above
# HLA-A*26:01 = assay: as above
# HLA-B*27:03 = assay: as above
# HLA-B*46:01 = assay: as above
# HLA-A*02:19 = assay: as above
# HLA-B*15:01 [4] = assay: as above
# HLA-B*07:02 [5] = assay: IEDB peptide-MHC binding, purified MHC/competitive/fluorescence; ≥ and ≤ were set here for values at or beyond the usual limits of such assays; details: source organism: Zaire ebolavirus
# HLA-B*08:01 [6] = assay: as above
# HLA-A*24:02 = assay: as above
# HLA-B*27:05 = assay: IEDB peptide-MHC binding, purified MHC/direct/fluorescence; filed as Kd, often an IC50 or EC50 that approximates it; ≥ and ≤ were set here for values at or beyond the usual limits of such assays
# HLA-B*58:01 = assay: as above
# HLA-B*08:02 = assay: as above
# HLA-A*68:02 = assay: as above
# HLA-B*15:02 = assay: as above; details: source organism: Aracatuba virus
# HLA-A*01:01 = assay: as above
# HLA-A*26:02 = assay: as above
# HLA-B*48:01 = assay: as above
# HLA-A*31:01 = assay: as above
# HLA-A*26:03 = assay: as above
# HLA-A*11:01 = assay: as above
# HLA-A*69:01 = assay: as above
# HLA-B*35:01 [7] = assay: IEDB peptide-MHC binding, purified MHC/competitive/fluorescence; filed as Kd, often an IC50 or EC50 that approximates it; ≥ and ≤ were set here for values at or beyond the usual limits of such assays; details: source organism: Vaccinia virus
# HLA-B*15:17 [8] = assay: as above; details: source organism: Vaccinia virus
# HLA-A*29:02 = assay: IEDB peptide-MHC binding, purified MHC/direct/fluorescence; filed as Kd, often an IC50 or EC50 that approximates it; ≥ and ≤ were set here for values at or beyond the usual limits of such assays; details: source organism: Burkholderia mallei ATCC 23344
# HLA-B*18:01 = assay: as above
# HLA-B*15:09 = assay: as above; details: source organism: Vibrio cholerae V52
# HLA-B*08:01 [9] = assay: as above; details: source organism: Vibrio cholerae V52
# HLA-B*15:17 [10] = assay: as above
# HLA-B*40:01 = assay: as above; details: source organism: Vibrio cholerae
# HLA-B*08:03 = assay: as above; details: source organism: Vibrio cholerae V52
# HLA-B*44:02 = assay: as above; details: source organism: Vibrio cholerae
# HLA-A*30:01 = assay: IEDB peptide-MHC binding, purified MHC/competitive/fluorescence; filed as Kd, often an IC50 or EC50 that approximates it; ≥ and ≤ were set here for values at or beyond the usual limits of such assays; details: source organism: Vibrio cholerae 2740-80
# HLA-A*02:01 [11] = assay: IEDB peptide-MHC binding, purified MHC/competitive/fluorescence; ≥ and ≤ were set here for values at or beyond the usual limits of such assays
# HLA-B*15:01 [12] = assay: as above; details: source organism: Zaire ebolavirus
# [13] = source organism: Vibrio vulnificus CMCP6
# [14] = source organism: Zaire ebolavirus
# [15] = source organism: Aracatuba virus
# [16] = source organism: Burkholderia mallei ATCC 23344
# [17] = source organism: Vibrio cholerae
# [18] = source organism: Vibrio cholerae V52
# [19] = source organism: Salmonella enterica subsp. enterica serovar Typhimurium
# [20] = source organism: Vaccinia virus Copenhagen
sequence,measurement,setting,value
EMSLADYLY,Kd,HLA-B*07:02 [1]; [13],≥ 20 µM
same,Kd,HLA-A*03:01; [13],≥ 20 µM
same,Kd,HLA-B*57:01; [13],≥ 20 µM
same,Kd,HLA-A*02:11; [13],≥ 20 µM
same,Kd,HLA-B*35:01 [2]; [13],0.027 µM
same,Kd,HLA-A*24:03; [13],≥ 20 µM
same,Kd,HLA-A*02:03; [13],≥ 20 µM
same,Kd,HLA-B*51:01,≥ 20 µM
same,Kd,HLA-A*02:16; [13],≥ 20 µM
same,Kd,HLA-B*39:01; [13],≥ 20 µM
same,Kd,HLA-A*02:01 [3]; [13],≥ 20 µM
same,Kd,HLA-A*02:12; [13],≥ 20 µM
same,Kd,HLA-A*26:01; [13],≥ 20 µM
same,Kd,HLA-B*27:03; [13],≥ 20 µM
same,Kd,HLA-B*46:01; [13],≥ 20 µM
same,Kd,HLA-A*02:19; [13],≥ 20 µM
same,Kd,HLA-B*15:01 [4]; [13],0.029 µM
ERGVRLHPL,IC50,HLA-B*07:02 [5],≥ 95.4 µM
same,IC50,HLA-B*08:01 [6]; [14],8.92 µM
same,IC50,HLA-A*24:02; [14],44.3 µM
LLLLISLVY,Kd,HLA-B*07:02 [1]; [15],≥ 20 µM
same,Kd,HLA-B*27:05; [15],≥ 20 µM
same,Kd,HLA-B*57:01; [15],≥ 20 µM
same,Kd,HLA-B*58:01; [15],≥ 20 µM
same,Kd,HLA-B*08:02; source organism: Variola virus,≥ 20 µM
same,Kd,HLA-A*68:02; [15],≥ 20 µM
same,Kd,HLA-B*15:02,4.57 µM
same,Kd,HLA-A*01:01; [15],≥ 20 µM
same,Kd,HLA-B*39:01; source organism: Variola virus,≥ 20 µM
same,Kd,HLA-A*26:02; source organism: Variola virus,≥ 20 µM
same,Kd,HLA-A*02:01 [3]; [15],≥ 20 µM
same,Kd,HLA-B*48:01; [15],≥ 20 µM
same,Kd,HLA-A*31:01; [15],≥ 20 µM
same,Kd,HLA-A*26:03; source organism: Variola virus,≥ 20 µM
same,Kd,HLA-A*11:01; [15],≥ 20 µM
same,Kd,HLA-B*46:01; [15],≥ 20 µM
same,Kd,HLA-A*69:01; [15],≥ 20 µM
same,Kd,HLA-B*15:01 [4]; [15],≥ 20 µM
same,Kd,HLA-B*35:01 [7],≥ 20 µM
same,Kd,HLA-B*15:17 [8],≥ 20 µM
MSADNAGAL,Kd,HLA-A*03:01; [16],≥ 20 µM
same,Kd,HLA-B*57:01; [16],≥ 20 µM
same,Kd,HLA-A*24:03; [16],≥ 20 µM
same,Kd,HLA-A*02:16; [16],≥ 20 µM
same,Kd,HLA-A*02:01 [3]; [16],≥ 20 µM
same,Kd,HLA-A*02:12; [16],≥ 20 µM
same,Kd,HLA-A*29:02,≥ 20 µM
same,Kd,HLA-B*27:03; [16],≥ 20 µM
same,Kd,HLA-B*18:01; [16],≥ 20 µM
same,Kd,HLA-A*02:19; [16],≥ 20 µM
REVFDYLLP,Kd,HLA-B*07:02 [1]; [17],≥ 20 µM
same,Kd,HLA-B*15:09,≥ 20 µM
same,Kd,HLA-B*27:05; [17],≥ 20 µM
same,Kd,HLA-B*57:01; [17],≥ 20 µM
same,Kd,HLA-B*58:01; [17],≥ 20 µM
same,Kd,HLA-B*08:01 [9],≥ 20 µM
same,Kd,HLA-B*15:17 [10]; [17],≥ 20 µM
same,Kd,HLA-B*08:02; [18],≥ 20 µM
same,Kd,HLA-A*68:02; [17],≥ 20 µM
same,Kd,HLA-A*01:01; [17],≥ 20 µM
same,Kd,HLA-B*39:01; [18],≥ 20 µM
same,Kd,HLA-A*26:02; [18],≥ 20 µM
same,Kd,HLA-A*02:01 [3]; [17],≥ 20 µM
same,Kd,HLA-B*40:01,0.077 µM
same,Kd,HLA-B*48:01; [17],≥ 20 µM
same,Kd,HLA-A*31:01; [17],≥ 20 µM
same,Kd,HLA-A*26:03; [18],≥ 20 µM
same,Kd,HLA-B*08:03,≥ 20 µM
same,Kd,HLA-A*11:01; [17],≥ 20 µM
same,Kd,HLA-B*44:02,≥ 20 µM
same,Kd,HLA-B*18:01; [17],≥ 20 µM
same,Kd,HLA-A*69:01; [17],≥ 20 µM
same,Kd,HLA-A*30:01,≥ 20 µM
VMNHKNKFM,IC50,HLA-B*08:01 [6]; [14],8.29 µM
same,IC50,HLA-A*02:01 [11]; [14],3.51 µM
same,IC50,HLA-A*24:02; [14],2.14 µM
same,IC50,HLA-B*15:01 [12],18 µM
WPVMQWLTA,Kd,HLA-B*07:02 [1]; [19],0.289 µM
same,Kd,HLA-A*03:01; [19],≥ 20 µM
same,Kd,HLA-B*57:01; [19],≥ 20 µM
same,Kd,HLA-A*02:11; [19],≥ 20 µM
same,Kd,HLA-B*35:01 [2]; [19],0.024 µM
same,Kd,HLA-A*02:03; [19],≥ 20 µM
same,Kd,HLA-B*15:17 [10]; [19],≥ 20 µM
same,Kd,HLA-A*02:16; [19],≥ 20 µM
same,Kd,HLA-A*02:01 [3]; [19],≥ 20 µM
same,Kd,HLA-A*02:12; [19],≥ 20 µM
same,Kd,HLA-A*26:01; [19],≥ 20 µM
same,Kd,HLA-B*27:03; [19],≥ 20 µM
same,Kd,HLA-B*18:01; [19],≥ 20 µM
same,Kd,HLA-B*46:01; [19],≥ 20 µM
same,Kd,HLA-A*02:19; [19],≥ 20 µM
same,Kd,HLA-B*15:01 [4]; [19],8 µM
YFLKIKVTA,IC50,HLA-B*08:01 [6]; [20],8.88 µM
same,IC50,HLA-A*02:01 [11]; [20],6.34 µM
same,IC50,HLA-A*24:02; [20],3.76 µM

# Reference: the Immune Epitope Database (IEDB)
